Tests used:
recombinant PD-L1 = molecular target: T1, recombinant PD-L1 (UniProt Q9NZQ7 19-238); assay: dot blot; recombinant PD-L1 spotted at 4, 10 and 40 ng, probed with the antibody
T1 construct: also called Programmed Death Ligand-1
From the text: Binding activity of anti-EPN1/anti-PD-L1 DVD-IgG bispecific antibodies. […] Purified recombinant proteins were spotted at three dose levels as depicted in FIG. 10, and probed with the four anti-EPN1/anti-PD-L1 bispecific antibodies. […] An antibody specific for a coat protein on the dengue virus served as a negative control.

BSA = molecular target: T2, BSA (UniProt P02769 25-607); assay: flow cytometry; BSA-coated latex beads, two-colour dot plot of IMM20059 against anti-CD63
T2 construct: also called BSA-coated beads
T2 sequence (P02769 25-607 limits assumed): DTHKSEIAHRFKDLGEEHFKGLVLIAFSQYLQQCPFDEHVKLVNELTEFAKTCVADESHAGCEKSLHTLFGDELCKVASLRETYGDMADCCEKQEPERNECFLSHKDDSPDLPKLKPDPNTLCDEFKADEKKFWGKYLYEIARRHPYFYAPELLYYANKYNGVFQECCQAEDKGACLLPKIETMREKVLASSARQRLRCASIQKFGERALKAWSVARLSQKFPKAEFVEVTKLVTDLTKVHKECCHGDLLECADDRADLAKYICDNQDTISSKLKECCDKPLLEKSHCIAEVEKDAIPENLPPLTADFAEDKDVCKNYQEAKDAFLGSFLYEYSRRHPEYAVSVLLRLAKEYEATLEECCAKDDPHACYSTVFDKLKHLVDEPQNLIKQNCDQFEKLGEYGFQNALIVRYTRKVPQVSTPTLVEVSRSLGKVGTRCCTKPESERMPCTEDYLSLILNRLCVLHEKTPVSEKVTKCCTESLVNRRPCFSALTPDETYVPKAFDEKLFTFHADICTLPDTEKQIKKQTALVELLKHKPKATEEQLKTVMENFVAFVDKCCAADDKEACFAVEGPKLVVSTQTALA

T1 sequence (Q9NZQ7 19-238 limits assumed): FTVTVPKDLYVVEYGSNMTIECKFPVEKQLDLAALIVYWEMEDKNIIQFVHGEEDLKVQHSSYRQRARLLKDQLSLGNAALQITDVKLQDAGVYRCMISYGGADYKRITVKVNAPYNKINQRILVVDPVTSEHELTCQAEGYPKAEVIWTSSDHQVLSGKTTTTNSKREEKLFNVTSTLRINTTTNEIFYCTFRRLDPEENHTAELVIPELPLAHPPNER

B1: IMM20059 (antibody, V domains shown)
VH: EVQLVESGGGLVQPGGSLRLSCAASGFTFSIHSLNWVRQAPGKGLEWVSYISSNSTTIYYADSVKGRFTISRDNAKDSLYLQMNSLRDEDTAVYYCARDYYCTGGTCFFLPDLWGRGALVTVSS
VL: EIVLTQSPATLSLSPGERATLSCRASQNISNFLAWYQHKPGQAPRLLIYDASIRATGIPARFSGSGSGTDFSLTISSLEPEDFAVYFCQQRYNWLTFGGGTKVEIKR
notes: Recombinantly expressed human IgG1 with the PR045-2H11 VH and VL domains
Recombinant PD-L1
  binding result: no binding (tested: 40 ng)
BSA
  binding result: no binding
